Data as given in patent US20030068675, “Position dependent recognition of GNN nucleotide triplets by zinc fingers” (published 2003).

What was measured:
Assay in all cases: EMSA
Details in all cases: tags: MBP fusion
ZFP SBS#908 = target: T1, ZFP SBS#908 (synthetic)
T1 chain: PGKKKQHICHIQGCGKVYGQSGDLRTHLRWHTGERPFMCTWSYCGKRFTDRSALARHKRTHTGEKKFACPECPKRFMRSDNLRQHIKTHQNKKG
Summary of the method: (§1)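 Purified ZFP was titrated against labeled double-stranded target (1 nM or lower, at least 10-fold below expected Kd) carrying the natural binding site with flanks. Binding buffer was 10 mM Tris pH 7.5, 100 mM KCl, 1 mM MgCl2, 0.1 mM ZnCl2, 5 mM DTT, 10% glycerol, 0.02% BSA, with equilibration for at least 45 min. Bound and free target were separated on a 10% polyacrylamide gel.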

ZFP SBS#922 = target: T2, ZFP SBS#922 (synthetic)
T2 chain: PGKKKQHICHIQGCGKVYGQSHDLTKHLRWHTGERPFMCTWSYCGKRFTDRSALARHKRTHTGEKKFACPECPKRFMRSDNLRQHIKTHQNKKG
Summary of the method: as §1

ZFP SBS#923 = ZFP SBS#923 (synthetic)
ZFP SBS#923 (synthetic), sequence (chain, as listed by the source): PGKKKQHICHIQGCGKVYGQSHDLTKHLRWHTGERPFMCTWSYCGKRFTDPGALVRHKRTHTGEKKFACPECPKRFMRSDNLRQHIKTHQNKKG
Summary of the method: as §1

ZFP SBS#921 = ZFP SBS#921 (synthetic)
ZFP SBS#921 (synthetic), sequence (chain, as listed by the source): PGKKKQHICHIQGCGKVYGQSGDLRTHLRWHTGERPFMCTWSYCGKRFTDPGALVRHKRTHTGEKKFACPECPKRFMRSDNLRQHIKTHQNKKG
Summary of the method: as §1

ZFP SBS#934 = ZFP SBS#934 (synthetic)
ZFP SBS#934 (synthetic), sequence (chain, as listed by the source): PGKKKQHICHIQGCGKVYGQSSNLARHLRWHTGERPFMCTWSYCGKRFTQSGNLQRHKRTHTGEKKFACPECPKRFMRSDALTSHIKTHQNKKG
Summary of the method: as §1

ZFP SBS#910 = ZFP SBS#910 (synthetic)
ZFP SBS#910 (synthetic), sequence (chain, as listed by the source): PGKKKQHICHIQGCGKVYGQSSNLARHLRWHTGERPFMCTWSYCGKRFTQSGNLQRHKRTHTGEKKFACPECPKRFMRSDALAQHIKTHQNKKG
Summary of the method: as §1

ZFP SBS#915 = ZFP SBS#915 (synthetic)
ZFP SBS#915 (synthetic), sequence (chain, as listed by the source): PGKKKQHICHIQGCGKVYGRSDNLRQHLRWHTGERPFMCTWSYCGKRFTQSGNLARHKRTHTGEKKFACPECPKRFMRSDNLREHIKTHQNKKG
Summary of the method: as §1

ZFP SBS#914 = ZFP SBS#914 (synthetic)
ZFP SBS#914 (synthetic), sequence (chain, as listed by the source): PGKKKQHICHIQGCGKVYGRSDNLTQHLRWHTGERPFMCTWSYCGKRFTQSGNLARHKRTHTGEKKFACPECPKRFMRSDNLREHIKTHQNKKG
Summary of the method: as §1

ZFP SBS#781 = ZFP SBS#781 (synthetic, UniProt P08047)
Summary of the method: as §1

ZFP SBS#787 = target: T3, ZFP SBS#787 (synthetic)
T3 chain: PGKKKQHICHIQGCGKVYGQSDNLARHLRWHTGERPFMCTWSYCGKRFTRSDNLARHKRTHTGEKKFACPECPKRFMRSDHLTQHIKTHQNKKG
Summary of the method: as §1

ZFP SBS#932 = target: T4, ZFP SBS#932 (synthetic)
T4 chain: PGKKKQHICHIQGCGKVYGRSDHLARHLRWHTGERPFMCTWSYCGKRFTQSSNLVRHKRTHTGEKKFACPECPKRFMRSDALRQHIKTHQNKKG
Summary of the method: as §1

ZFP SBS#903 = ZFP SBS#903 (synthetic)
ZFP SBS#903 (synthetic), sequence (chain, as listed by the source): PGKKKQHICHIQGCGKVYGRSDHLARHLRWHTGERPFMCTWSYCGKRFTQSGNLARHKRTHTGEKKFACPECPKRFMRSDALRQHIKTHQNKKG
Summary of the method: as §1

ZFP SBS#931 = ZFP SBS#931 (synthetic)
ZFP SBS#931 (synthetic), sequence (chain, as listed by the source): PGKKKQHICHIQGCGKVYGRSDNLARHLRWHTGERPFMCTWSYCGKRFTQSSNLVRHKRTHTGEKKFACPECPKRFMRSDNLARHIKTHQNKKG
Summary of the method: as §1

ZFP SBS#935 = ZFP SBS#935 (synthetic)
Summary of the method: as §1

ZFP SBS#911 = ZFP SBS#911 (synthetic)
ZFP SBS#911 (synthetic), sequence (chain, as listed by the source): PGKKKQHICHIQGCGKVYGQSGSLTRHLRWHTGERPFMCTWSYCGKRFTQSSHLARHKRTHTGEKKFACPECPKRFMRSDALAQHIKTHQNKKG
Summary of the method: as §1

ZFP SBS#929 = target: T5, ZFP SBS#929 (synthetic)
T5 chain: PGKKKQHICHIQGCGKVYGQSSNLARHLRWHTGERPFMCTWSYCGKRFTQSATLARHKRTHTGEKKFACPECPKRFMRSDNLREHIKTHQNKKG
Summary of the method: as §1

ZFP SBS#826 = target: T6, ZFP SBS#826 (synthetic)
T6 chain: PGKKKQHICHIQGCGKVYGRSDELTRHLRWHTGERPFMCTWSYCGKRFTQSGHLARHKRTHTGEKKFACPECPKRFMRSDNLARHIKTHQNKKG
Summary of the method: as §1

ZFP SBS#827 = target: T7, ZFP SBS#827 (synthetic)
T7 chain: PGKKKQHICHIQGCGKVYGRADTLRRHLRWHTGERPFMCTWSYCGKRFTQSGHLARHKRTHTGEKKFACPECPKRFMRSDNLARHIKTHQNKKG
Summary of the method: as §1

ZFP SBS#750 = ZFP SBS#750 (synthetic)
Summary of the method: as §1

ZFP SBS#920 = ZFP SBS#920 (synthetic)
ZFP SBS#920 (synthetic), sequence (chain, as listed by the source): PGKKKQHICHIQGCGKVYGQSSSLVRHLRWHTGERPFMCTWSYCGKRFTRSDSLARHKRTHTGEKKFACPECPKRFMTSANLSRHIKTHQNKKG
Summary of the method: as §1

ZFP SBS#928 = target: T8, ZFP SBS#928 (synthetic)
T8 chain: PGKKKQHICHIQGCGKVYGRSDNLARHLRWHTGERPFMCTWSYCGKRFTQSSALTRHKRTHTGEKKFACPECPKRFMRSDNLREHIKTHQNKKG
Summary of the method: as §1

ZFP SBS#927 = target: T9, ZFP SBS#927 (synthetic)
T9 chain: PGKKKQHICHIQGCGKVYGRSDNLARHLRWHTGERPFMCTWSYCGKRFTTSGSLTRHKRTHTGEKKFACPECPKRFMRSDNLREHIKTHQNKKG
Summary of the method: as §1

ZFP SBS#962 = ZFP SBS#962 (synthetic, UniProt P08047)
ZFP SBS#962, sequence (P08047 other isoform, or with tags, fused parts or gaps): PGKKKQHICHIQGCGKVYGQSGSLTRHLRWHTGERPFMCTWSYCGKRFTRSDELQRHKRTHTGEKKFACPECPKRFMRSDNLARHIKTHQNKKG
Summary of the method: as §1

ZFP SBS#963 = ZFP SBS#963 (synthetic)
Summary of the method: as §1

ZFP SBS#905 = target: T10, ZFP SBS#905 (synthetic)
T10 chain: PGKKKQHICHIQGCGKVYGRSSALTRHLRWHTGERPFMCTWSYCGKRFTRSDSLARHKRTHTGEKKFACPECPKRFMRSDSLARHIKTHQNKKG
Summary of the method: as §1

ZFP SBS#926 = target: T11, ZFP SBS#926 (synthetic)
T11 chain: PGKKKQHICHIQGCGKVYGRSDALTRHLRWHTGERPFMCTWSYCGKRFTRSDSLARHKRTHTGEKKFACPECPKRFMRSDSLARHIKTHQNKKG
Summary of the method: as §1

ZFP SBS#783 = ZFP SBS#783 (synthetic)
Summary of the method: as §1

ZFP SBS#785 = ZFP SBS#785 (synthetic)
ZFP SBS#785 (synthetic), sequence (chain, as listed by the source): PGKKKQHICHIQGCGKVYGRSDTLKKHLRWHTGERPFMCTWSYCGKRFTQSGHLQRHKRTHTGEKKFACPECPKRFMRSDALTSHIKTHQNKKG
Summary of the method: as §1

ZFP SBS#786 = ZFP SBS#786 (synthetic)
ZFP SBS#786 (synthetic), sequence (chain, as listed by the source): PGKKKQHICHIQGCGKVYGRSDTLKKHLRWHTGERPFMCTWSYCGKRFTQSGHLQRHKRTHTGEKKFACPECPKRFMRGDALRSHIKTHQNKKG
Summary of the method: as §1

ZFP SBS#912 = target: T12, ZFP SBS#912 (synthetic)
T12 chain: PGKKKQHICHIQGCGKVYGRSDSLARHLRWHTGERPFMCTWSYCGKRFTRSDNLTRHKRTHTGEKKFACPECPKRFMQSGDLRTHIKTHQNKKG
Summary of the method: as §1

ZFP SBS#256 = target: T13, ZFP SBS#256 (synthetic)
T13 chain: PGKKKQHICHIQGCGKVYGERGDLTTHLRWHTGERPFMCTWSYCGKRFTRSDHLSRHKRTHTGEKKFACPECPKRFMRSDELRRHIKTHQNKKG
Summary of the method: as §1

ZFP SBS#916 = ZFP SBS#916 (synthetic)
ZFP SBS#916 (synthetic), sequence (chain, as listed by the source): as the sequence (P08047 other isoform, or with tags, fused parts or gaps) above, with S23H, T25A, R50Q, D52G, E53N, Q55A, A83Q counted along it
Summary of the method: as §1

ZFP SBS#909 = ZFP SBS#909 (synthetic)
ZFP SBS#909 (synthetic), sequence (chain, as listed by the source): as the sequence (P08047 other isoform, or with tags, fused parts or gaps) above, with S23N, T25S, R50Q, D52G, E53N, N81A counted along it
Summary of the method: as §1

ZFP SBS#904 = ZFP SBS#904 (synthetic)
ZFP SBS#904 (synthetic), sequence (chain, as listed by the source): as the sequence (P08047 other isoform, or with tags, fused parts or gaps) above, with Q20D, G22S, S23N, R50Q, D52S, E53H, Q55A, A83T, R84Q counted along it
Summary of the method: as §1

ZFP SBS#933 = target: T14, ZFP SBS#933 (synthetic)
T14 chain: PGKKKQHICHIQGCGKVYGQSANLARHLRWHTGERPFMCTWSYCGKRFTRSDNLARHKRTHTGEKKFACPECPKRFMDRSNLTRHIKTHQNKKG
Summary of the method: as §1

ZFP SBS#946 = target: T15, ZFP SBS#946 (synthetic)
T15 chain: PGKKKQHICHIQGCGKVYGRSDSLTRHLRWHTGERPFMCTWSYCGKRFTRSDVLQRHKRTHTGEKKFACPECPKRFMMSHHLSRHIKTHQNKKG
Summary of the method: as §1

ZFP SBS#945 = target: T16, ZFP SBS#945 (synthetic)
T16 chain: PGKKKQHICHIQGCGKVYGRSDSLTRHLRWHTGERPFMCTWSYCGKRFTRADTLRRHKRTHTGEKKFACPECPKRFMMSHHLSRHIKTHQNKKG
Summary of the method: as §1

ZFP SBS#948 = ZFP SBS#948 (synthetic)
ZFP SBS#948 (synthetic), sequence (chain, as listed by the source): as the sequence (P08047 other isoform, or with tags, fused parts or gaps) above, with Q20R, G22D, E53V, R78Q, D80S, N81H counted along it
Summary of the method: as §1

ZFP SBS#947 = ZFP SBS#947 (synthetic)
ZFP SBS#947 (synthetic), sequence (chain, as listed by the source): as the sequence (P08047 other isoform, or with tags, fused parts or gaps) above, with Q20R, G22D, R78Q, D80S, N81H counted along it
Summary of the method: as §1

ZFP SBS#431 = target: T17, ZFP SBS#431 (synthetic)
T17 chain: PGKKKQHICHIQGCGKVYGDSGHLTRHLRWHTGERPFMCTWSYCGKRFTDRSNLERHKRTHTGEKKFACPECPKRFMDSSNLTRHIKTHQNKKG
Summary of the method: as §1

B1: AAGGTCTCA (dsDNA)
DNA 1: AAGGTCTCA
DNA 2: TGAGACCTT
Work on B1 yielded a Kd (ZFP SBS#908) of 50 nM, a Kd (ZFP SBS#922) of 4 nM and a Kd (ZFP SBS#923) of 2 nM. The Kd (ZFP SBS#921) was 11 nM.

B2: ATGGAAGAT (dsDNA)
DNA 1: ATGGAAGAT
DNA 2: ATCTTCCAT
B2 showed a Kd (ZFP SBS#934) of 0.07 nM and a Kd (ZFP SBS#910) of 0.03 nM.

B3: CAGGAAAAG (dsDNA)
DNA 1: CAGGAAAAG
DNA 2: CTTTTCCTG
For B3, the Kd (ZFP SBS#915) was 45.1 nM and the Kd (ZFP SBS#914) was 1.26 nM.

B4: GGGGAGCAGC (dsDNA)
DNA 1: GGGGAGCAGC
DNA 2: GCTGCTCCCC
With B4 the Kd (ZFP SBS#781) was 4.25 nM.

B5: AGGGAGGATG (dsDNA)
DNA 1: AGGGAGGATG
DNA 2: CATCCTCCCT
B5 gave a Kd (ZFP SBS#787) of 4 nM.

B6: ATGGAAGGG (dsDNA)
DNA 1: ATGGAAGGG
DNA 2: CCCTTCCAT
In the case of B6, the Kd (ZFP SBS#932) is reported as 797 nM and the Kd (ZFP SBS#903) is reported as 1.03 nM.

B7: GAGGAAGAG (dsDNA)
DNA 1: GAGGAAGAG
DNA 2: CTCTTCCTC
B7 showed a Kd (ZFP SBS#931) of 2 nM.

B8: ATGGGTGCA (dsDNA)
DNA 1: ATGGGTGCA
DNA 2: TGCACCCAT
For B8, the Kd (ZFP SBS#935) was 0.91 nM and the Kd (ZFP SBS#911) was 0.91 nM.

B9: CAGGTAGAT (dsDNA)
DNA 1: CAGGTAGAT
DNA 2: ATCTACCTG
In the case of B9, the Kd (ZFP SBS#929) is reported as 1.3 nM.

B10: GAGGGAGCGA (dsDNA)
DNA 1: GAGGGAGCGA
DNA 2: TCGCTCCCTC
Work on B10 yielded a Kd (ZFP SBS#826) of 2.75 nM, a Kd (ZFP SBS#827) of 1.2 nM and a Kd (ZFP SBS#750) of 52 nM.

B11: GATGTGGTA (dsDNA)
DNA 1: GATGTGGTA
DNA 2: TACCACATC
B11 showed a Kd (ZFP SBS#920) of 4 nM.

B12: CAGGTTGAG (dsDNA)
DNA 1: CAGGTTGAG
DNA 2: CTCAACCTG
In the case of B12, the Kd (ZFP SBS#928) is reported as 25 nM and the Kd (ZFP SBS#927) is reported as 3.61 nM.

B13: GAGGCGGCA (dsDNA)
DNA 1: GAGGCGGCA
DNA 2: TGCCGCCTC
For B13, the Kd (ZFP SBS#962) was 0.015 nM and the Kd (ZFP SBS#963) was 0.015 nM.

B14: GTGGTGGTG (dsDNA)
DNA 1: GTGGTGGTG
DNA 2: CACCACCAC
In the case of B14, the Kd (ZFP SBS#905) is reported as 1.15 nM and the Kd (ZFP SBS#926) is reported as 7.5 nM.

B15: TTGGGAGCGG (dsDNA)
DNA 1: TTGGGAGCGG
DNA 2: CCGCTCCCAA
In the case of B15, the Kd (ZFP SBS#783) is reported as 2000 nM, the Kd (ZFP SBS#785) is reported as 50 nM and the Kd (ZFP SBS#786) is reported as 2000 nM.

B16: TCAGAGGTG (dsDNA)
DNA 1: TCAGAGGTG
DNA 2: CACCTCTGA
B16 gave a Kd (ZFP SBS#912) of 0.135 nM.

B17: GCGGGGTCC (dsDNA)
DNA 1: GCGGGGTCC
DNA 2: GGACCCCGC
With B17 the Kd (ZFP SBS#256) was 800 nM.

B18: GAGGAAGGA (dsDNA)
DNA 1: GAGGAAGGA
DNA 2: TCCTTCCTC
With B18 the Kd (ZFP SBS#916) was 1.3 nM.

B19: GTGGAAGAA (dsDNA)
DNA 1: GTGGAAGAA
DNA 2: TTCTTCCAC
With B19 the Kd (ZFP SBS#909) was 16.4 nM.

B20: AAGGGTGAC (dsDNA)
DNA 1: AAGGGTGAC
DNA 2: GTCACCCTT
With B20 the Kd (ZFP SBS#904) was 1 nM.

B21: GACGAGGAA (dsDNA)
DNA 1: GACGAGGAA
DNA 2: TTCCTCGTC
Work on B21 yielded a Kd (ZFP SBS#933) of 500 nM.

B22: GGTGCGGTG (dsDNA)
DNA 1: GGTGCGGTG
DNA 2: CACCGCACC
In the case of B22, the Kd (ZFP SBS#946) is reported as 0.027 nM, the Kd (ZFP SBS#945) is reported as 0.027 nM and the Kd (ZFP SBS#948) is reported as 0.017 nM. For the same binder, the Kd (ZFP SBS#947) was 0.013 nM.

B23: GACGACGGC (dsDNA)
DNA 1: GACGACGGC
DNA 2: GCCGTCGTC
B23 showed a Kd (ZFP SBS#431) of 100 nM.
